From article PMC6063412 (2018)
Substitutions are numbered along the chain they refer to.

T1: recombinant human PDGF-CC core domain protein (activated PDGF-CC, growth factor domain) (human, UniProt Q9NRA1 230-345)
T1 chain: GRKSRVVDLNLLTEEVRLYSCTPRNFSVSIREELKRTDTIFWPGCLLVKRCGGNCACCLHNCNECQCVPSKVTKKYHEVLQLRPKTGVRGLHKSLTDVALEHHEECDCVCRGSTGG

B1: monoclonal anti-PDGF-CC antibody 6B3 (antibody, V domains shown)
VH: QVQLQQSGVEVARPGASVKLSCKASGYTFRSYGITWVRQRTGQGLEWIGEIYPRSGKTYYNEKFKGKATLTADTSSSTVYMELRSLTSEDSAVYFCAREGYGYDGGYFDYWGQGTTLTVSS
VL: DIVMTQSPSSLAMSVGQKVTMSCKSSQSLLNSRNQKNYLAWYQQKPGQSPKLLVYFASTRESGVPDRFTGSGSGTDFTLTISSVQAEDLAVYYCQQHYSTPLTFGAGTKLELK
B2: monoclonal anti-PDGF-CC antibody 11F5 (antibody, V domains shown)
VH: QVQLQQSGAELARPGASVKLSCKASGYIFISYGISWVKQRTGQGLEWIGEIYPRSGKTYYNEKFKDKAALTADKSSSIAYMELRSLTSEDSAVYFCAREGYGYDGGYFDYWGQGTILTVSS
VL: B1 VL with T20A, M21V, R33S, E61D
B3: monoclonal anti-PDGF-CC antibody 19C7 (antibody, V domains shown)
VH: B1 VH
VL: B1 VL

Target: T1, recombinant human PDGF-CC core domain …
Experiment: SPR

Point of comparison: B3, koff 0.0016 s⁻¹. Against it:
- B1 — within 1.5-fold, 0.0015 s⁻¹
- B2 — 2.8-fold lower, 0.00058 s⁻¹
